In brackets after ≈: the same amount, converted by molar mass. Where two headings read alike, the source gives them in different places. Where a SMILES comes first, the peptide text is derived from it. [ ]: non-standard residue; d: D form. The star is where a group is joined. Dolaproine = CO[C@@H]([C@@H]1CCCN1)[C@@H](C)C(=O)O; Dil = CC[C@H](C)[C@H](NC)[C@@H](CC(=O)O)OC; NMe2Val = CC(C)[C@@H](C(=O)*)N(C)C; NMeV = CN[C@H](C(=O)O)C(C)C

Test [1] has as its system SKBr3 cells. The test is described as follows: Cell killing assay (MTS), SKBr3 cells. It counts as cell-based, human. The method, then:
SKBr3, human breast cancer cell line, high HER2 expression levels, up to 1,000,000 receptors per cell [Lazar G A, et al Proc Natl Acad Sci USA. […] When confluency was 70-80%, cells were washed with PBS (2×10 ml) and incubated with trypsin for 5-7 min. Complete media was added and the cells were resuspended by pipetting. The cells were recovered by centrifugation (2 min, 2000 rpm), the supernatant was discarded, and the cells were resuspended in complete DMEM (5 ml). The cells were then counted using a haemocytometer and diluted accordingly. They were plated at 4500 cells/well (200 μl) using attachment factor and incubated overnight at 37° C., 5% CO2 in a humidified atmosphere. U87 is a non-HER2 expressing glioblastoma cell line and was grown in a similar way, plated at 1000 cells/well.
[…] Cell viability was measured using the Promega Aqueous Cell-titre-96™ aqueous one solution cell proliferation kit according to manufacturer's instructions. Briefly, the media was removed and 100 μl of complete phenol red free media, pre-combined with MTS reagent, was added to the cells (20 μl of reagent per 100 μl of media). The plates were read on an ELISA plate reader at 490 nm after a 2 hr incubation in the dark (5% CO2, 37° C.).
The data (absorption units) were converted to % cell survival by using the untreated controls as the 100% cell survival and the Triton X-100 controls as the 100% cell death. The average absorption value for the latter was subtracted from all the rest of the data in order to get a suitable baseline. The averages were converted to survival and standard error values were obtained for each n value (as a % cell survival). […] Experiments were repeated at least 3 times for each compound tested and a set or an average of the data was plotted and fitted to obtain a dose response curve.
(§1) The cells were recovered by centrifugation (2 min, 2000 rpm), the supernatant was discarded, and the cells were resuspended in complete McCoy's 5A (5 ml). The cells were then counted using a haemocytometer and diluted accordingly. They were plated at 5000 cells/well (200 μl) using attachment factor and incubated overnight at 37° C., 5% CO2 in a humidified atmosphere. U87 is a non-HER2 expressing glioblastoma cell line [Zitron I M et al (2013) BMC Cancer 13:83] and was grown in a similar way, plated at 1000 cells/well (using DMEM media). BT474 is a HER2 expressing breast cancer cell line [Brockhoff G et al (2007) Cell Prolif 40:488-507] and was grown in a similar way, plated at 7500 cells/well (using RPMI media). NCI-N87 is a HER2 expressing gastric cancer cell line [Yamashita-Kashima Y et al (2013) Oncol. Rep 30:1087-93] and was grown in a similar way, plated at 7500 cells/well (using RPMI media).
[…] Cell viability was measured using the Promega Aqueous Cell-titre-96™ aqueous one solution cell proliferation kit (MTS reagent) according to manufacturer's instructions. Briefly, the media was removed and 100 μl of complete phenol red free media, pre-combined with MTS reagent, was added to the cells (20 μl of reagent per 100 μl of media). The plates were read on an ELISA plate reader at 490 nm after a 2 hr incubation in the dark (5% CO2, 37° C.).
The data (absorption units) were converted to % cell survival by using the untreated controls as the 100% cell survival and the Triton X-100 controls as the 100% cell death. The average absorption value for the latter was subtracted from all the rest of the data in order to get a suitable baseline. The averages were converted to survival and standard error values were obtained for each n value (as a % cell survival).

Test [2] has as its system BT474 cells. The test is described as follows: Cell killing assay (MTS), BT474 cells. It counts as cell-based, human. The method, then: as §1
The cells were exposed to the various ADCs diluted in complete media for 96 hours at 37° C., 5% CO2 in a humidified atmosphere. Cell viability was measured using the Promega Aqueous Cell-titre-96™ aqueous one solution cell proliferation kit (MTS reagent) according to manufacturer's instructions. Briefly, the media was removed and 100 μl of complete phenol red free media, pre-combined with MTS reagent, was added to the cells (20 μl of reagent per 100 μl of media). The plates were read on an ELISA plate reader at 490 nm after a 2 hr incubation in the dark (5% CO2, 37° C.).
The data (absorption units) were converted to % cell survival by using the untreated controls as the 100% cell survival and the Triton X-100 controls as the 100% cell death. The average absorption value for the latter was subtracted from all the rest of the data in order to get a suitable baseline. The averages were converted to survival and standard error values were obtained for each n value (as a % cell survival). […] Experiments were repeated at least 3 times for each compound tested and a set or an average of the data was plotted and fitted to obtain a dose-response curve.

Test [3] deals with HER2 (Homo sapiens, UniProt P04626). The test is described as follows: Biacore SPR binding to immobilised HER2. As to conditions: immobilised HER2. The method, then: The binding affinity against immobilised HER2 target antigen was determined by Biacore SPR compared to the unmodified scFv on a Biacore T200. A standard amine-coupling method was used to prepare all Biacore surfaces (CM5 or CM3), as follows. Flow cells were activated individually by injecting a freshly mixed solution of 0.2M EDC in 0.05 M NHS at 30 μl/min. […] Excess NHS ester was deactivated using a 1 M ethanolamine solution. To measure the kinetics of the antibody and conjugate on the HER2 chip, a […] serial dilution (typically at 5, 2.5, 1.25, 0.6 μg/ml or lower for free antibody and 20, 10, 5, 2.5 μg/ml for the conjugates), was injected for 160 s at 30 μl/min, allowing a 900-s dissociation phase. The dissociation time was extended to 3600 s for the highest concentration. Surfaces were regenerated with 45 s injection of MgCl2 8M.
To evaluate binding ability, manual runs were performed at 30 μl/min with a 60 s injection of the desired compound followed by 60 s waiting time and a 45 s of regeneration at 10 μl/min using MgCl2 8M. All data was analysed using the software, BIAEvaluation.

Setting [4] is: SKBr3 Cells (HER2 +++), 4 hours incubation, Table 52.
[5] abbreviates: SKBr3 Cells (HER2 +++), 4 hours incubation, Table 52, read-out: IC50.
Setting [6] is: SKBr3 Cells (HER2 +++), 96 hours incubation, Table 52.
The mark [7] stands for this setting: SKBr3 Cells (HER2 +++), 96 hours incubation, Table 52, read-out: IC50.
Where [8] appears, read: 96 hours exposure, read-out: IC50 nM SKBr3 Cells (HER2+++).

Regarding `CC[C@H](C)[C@@H]([C@@H](CC(=O)N1CCC[C@H]1[C@H](OC)[C@@H](C)C(=O)N[C@@H](Cc1ccccc1)C(=O)O)OC)N(C)C(=O)[C@@H](NC(=O)[C@H](C(C)C)N(C)C)C(C)C` [Free Auristatin] (NMe2Val-V[Dil][Dolaproine]F-OH), the “IC50 μg/ml” value was 0.00181 µg/mL (≈ 2.43 nM) in test [1] (setting [4]) and 0.00081 µg/mL (≈ 1.09 nM) in test [1] (setting [6]). Also, the IC50 in test [1] (setting [5]) was greater than 100 nM; in test [1] (setting [7]), greater than 10 nM.

In the case of `CC[C@H](C)[C@@H]([C@@H](CC(=O)N1CCC[C@H]1[C@H](OC)[C@@H](C)C(=O)N[C@@H](Cc1ccccc1)C(=O)O)OC)N(C)C(=O)[C@@H](NC(=O)[C@@H](NC)C(C)C)C(C)C` [Free drug MMAF] (H-[NMeV]V[Dil][Dolaproine]F-OH), the IC50 in test [2] (Homo sapiens, BT-474, 96 h, read-out: IC50 pM) was greater than 10000 pM.

B1: scFv (TCT)-P5C5, DAR = 5 (conjugate)
scFv: SGSGGSGQVQLVQSGAEVKKPGESLKISCKGSGYSFTSYWIAWVRQMPGKGLEYMGLIYPGDSDTKYSPSFQGQVTISVDKSVSTAYLQWSSLKPSDSAVYFCARHDVGYCSSSNCAAWPEYFQHWGQGTLVTVSSGGGGSGGGGSGGGGSQSVLTQPPSVSAAPGQKVTISCSGSSSNIGNNYVSWYQQLPGTAPKLLIYGHTNRPAGVPDRFSGSKSGTSASLAISGFRSEDEADYYCAAWDDSLSGWVFGGGTKLTVLMASMTGGQQMG
B1: the “IC50 μg/ml SKBr3 Cells (HER2+++)” value in test [1] (96 hours exposure) came out at 1.33 ± 0.1 µg/mL. The IC50 in test [1] (setting [8]) was 47.5 ± 0.36 nM.

B2: scFv (TCT)-P5C5, DAR = 8 (conjugate)
scFv: B1 scFv
As to B2, the “IC50 μg/ml SKBr3 Cells (HER2+++)” value in test [1] (96 hours exposure) is 0.8 ± 0.1 µg/mL. Also, the IC50 in test [1] (setting [8]) worked out at 28 ± 0.36 nM.

B3: scFv (TCT)-MMAF DAR 8 (conjugate)
scFv: B1 scFv
As to B3, the “IC50 μg/ml” value in test [2] (BT474 Cells (HER2++), 96 hours, Table 47) came to 0.02 µg/mL; in test [1] (SKBr3 Cells (HER2+++), 96 hours, Table 47), 0.0053 µg/mL. In addition, the IC50 in test [2] (BT474 Cells (HER2++), 96 hours, Table 47, read-out: IC50) came out at 714 pM; in test [1] (SKBr3 Cells (HER2+++), 96 hours, Table 47, read-out: IC50) it was 0.189 nM.

B4: scFv (TCT1067)-MMAF-C5 DAR 5.2 (conjugate)
scFv: SGSGGSGQVQLVQSGAEVKKPGESLKISCKGSGYSFTSYWIAWVRQMPGKGLEYMGLIYPGDSDTKYSPSFQGQVTISVDKSVSTAYLQWSSLKPSDSAVYFCARHDVGYCTDRTCAAWPEWLGVWGQGTLVTVSSGGGGSGGGGSGGGGSQSVLTQPPSVSAAPGQKVTISCSGSSSNIGNNYVSWYQQLPGTAPKLLIYGHTNRPAGVPDRFSGSKSGTSASLAISGFRSEDEADYYCASWDYTLSGWVFGGGTKLTVLMASMTGGQQMG
B4: in test [3], the association rate is 1.8e+06 M⁻¹ s⁻¹ and the dissociation rate was 3.4e-05 s⁻¹.

B5: scFv (TCT1067)-Auristatin-F-C5 DAR 5.65 (conjugate)
scFv: B4 scFv
In test [3], B5 registered an association rate of 336000 M⁻¹ s⁻¹ and a dissociation rate of 1.35e-05 s⁻¹.

B6: ScFv (TCT1067)-AF-C5 DAR 5.3 (conjugate)
scFv: B4 scFv
Take B6: the “IC50 μg/ml” value is 0.00181 µg/mL in test [1] (setting [4]) and 0.00081 µg/mL in test [1] (setting [6]). In addition, the half-maximal inhibitory concentration (IC50) in test [1] (setting [5]) is 0.0644 nM; in test [1] (setting [7]), 0.0288 nM.

B7: scFv (TCT1067)-P5C5 DAR 10.6 (conjugate)
scFv: B4 scFv
With B7, the “IC50 μg/ml” value in test [2] (BT474 Cells (HER2++), 96 hours, Table 48) came to 0.5 µg/mL. Besides, the 50% inhibitory concentration (IC50) in test [2] (BT474 Cells (HER2++), 96 hours, Table 48, read-out: IC50) is 17800 pM.

B8: scFv (TCT1067)-Auristatin-F-C5 DAR 11.9 (conjugate)
scFv: B4 scFv
Regarding B8, in test [3], the association rate stood at 21700 M⁻¹ s⁻¹ and the dissociation rate is 1.76e-05 s⁻¹.

B9: scFv (TCT1067)-Auristatin-F-C5 DAR 3.3 (conjugate)
scFv: B4 scFv
In test [3], B9 gave an association rate of 556000 M⁻¹ s⁻¹ and a dissociation rate of 1.82e-05 s⁻¹.

These data come from US11202837B2, “Biological materials and uses thereof” (Antikor Biopharma Limited, priority 2014, dated 2021).
